Measured values: the supplement of paper PMC10567573

B1: FAM46D (parent)
chain: LELKFVSSLRRQFEFSVDSFQIVL
B2: PRIM1 (parent)
chain: CCSSADICPKCWTLMTMAIRIIDR

Variants of: B1
Test: protein stability index of a GFP-peptide fusion (GPS, HEK-293T) (PSI 1-6); higher = more stable
Details: c terminus: a fixed tail appended
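Also: lentivirally expressed fusions sorted by FACS into six bins by GFP to DsRed ratio, PSI derived from sequencing read proportions per bin multiplied by bin number.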

Compared with WELKFVSSLRRQFEFSVDSFQIVL, RELKFVSSLRRQFEFSVDSFQIVL is higher in protein stability index: 1.92 for the first, 2.33 for the second.

First: YELKFVSSLRRQFEFSVDSFQIVL
Second: VELKFVSSLRRQFEFSVDSFQIVL
The protein stability index of the first is lower: 2.56 for the first, 2.79 for the second.

Compared with IELKFVSSLRRQFEFSVDSFQIVL, KELKFVSSLRRQFEFSVDSFQIVL is lower in protein stability index: 2.7 for the first, 2.36 for the second.

Compared with SELKFVSSLRRQFEFSVDSFQIVL, NELKFVSSLRRQFEFSVDSFQIVL is higher in protein stability index: 2.57 for the first, 2.9 for the second.

Going from FELKFVSSLRRQFEFSVDSFQIVL to DELKFVSSLRRQFEFSVDSFQIVL, the protein stability index falls from 3.04 to 1.9.

Compared with TELKFVSSLRRQFEFSVDSFQIVL, AELKFVSSLRRQFEFSVDSFQIVL is lower in protein stability index: 2.9 for the first, 2.03 for the second.

Compared with QELKFVSSLRRQFEFSVDSFQIVL, HELKFVSSLRRQFEFSVDSFQIVL is higher in protein stability index: 2.32 for the first, 2.49 for the second.

Going from MELKFVSSLRRQFEFSVDSFQIVL to GELKFVSSLRRQFEFSVDSFQIVL, the protein stability index falls from 4.32 to 2.02.

Compared with EELKFVSSLRRQFEFSVDSFQIVL, PELKFVSSLRRQFEFSVDSFQIVL is higher in protein stability index: 2.65 for the first, 2.78 for the second.

Compared with LCLKFVSSLRRQFEFSVDSFQIVL, LILKFVSSLRRQFEFSVDSFQIVL is lower in protein stability index: 2.74 for the first, 1.99 for the second.

Compared with LALKFVSSLRRQFEFSVDSFQIVL, LDLKFVSSLRRQFEFSVDSFQIVL is lower in protein stability index: 2.56 for the first, 2.46 for the second.

Compared with LFLKFVSSLRRQFEFSVDSFQIVL, LHLKFVSSLRRQFEFSVDSFQIVL is higher in protein stability index: 2.6 for the first, 2.95 for the second.

LGLKFVSSLRRQFEFSVDSFQIVL gave a protein stability index of 2.65.

Variants of: B2
Test: as above
Details: c terminus: a fixed tail appended

Compared with CCSSADICPKCWTLMTKAIRIIDR, CCSSADICPKCWTLMTVAIRIIDR is lower in protein stability index: 2.56 for the first, 1.6 for the second.

First: CCSSADICPKCWTLMTSAIRIIDR
Second: CCSSADICPKCWTLMTGAIRIIDR
The protein stability index of the first is higher: 2.95 for the first, 1.96 for the second.

First: CCSSADICPKCWTLMTTAIRIIDR
Second: CCSSADICPKCWTLMTDAIRIIDR
The protein stability index of the first is lower: 2.09 for the first, 2.33 for the second.

Going from CCSSADICPKCWTLMTNAIRIIDR to CCSSADICPKCWTLMTHAIRIIDR, the protein stability index falls from 2.48 to 2.38.

Going from CCSSADICPKCWTLMTCAIRIIDR to CCSSADICPKCWTLMTIAIRIIDR, the protein stability index rises from 1.15 to 1.94.

Going from CCSSADICPKCWTLMTLAIRIIDR to CCSSADICPKCWTLMTFAIRIIDR, the protein stability index rises from 1.74 to 1.94.

Compared with CCSSADICPKCWTLMTQAIRIIDR, CCSSADICPKCWTLMTWAIRIIDR is lower in protein stability index: 2.54 for the first, 2.19 for the second.

Going from CCSSADICPKCWTLMTEAIRIIDR to CCSSADICPKCWTLMTPAIRIIDR, the protein stability index falls from 2.5 to 2.29.

First: CCSSADICPKCWTLMTYAIRIIDR
Second: CCSSADICPKCWTLMTAAIRIIDR
The protein stability index of the first is higher: 2.15 for the first, 2.03 for the second.

Going from CCSSADICPKCWTLMTRAIRIIDR to CCSSADICPKCWTLMCMAIRIIDR, the protein stability index falls from 1.7 to 1.61.

Compared with CCSSADICPKCWTLMSMAIRIIDR, CCSSADICPKCWTLMNMAIRIIDR is higher in protein stability index: 1.49 for the first, 2.37 for the second.

Going from CCSSADICPKCWTLMQMAIRIIDR to CCSSADICPKCWTLMGMAIRIIDR, the protein stability index rises from 2.54 to 2.56.

First: CCSSADICPKCWTLMMMAIRIIDR
Second: CCSSADICPKCWTLMKMAIRIIDR
The protein stability index of the first is lower: 1.52 for the first, 1.61 for the second.

First: CCSSADICPKCWTLMFMAIRIIDR
Second: CCSSADICPKCWTLMAMAIRIIDR
The protein stability index of the first is lower: 2.12 for the first, 2.23 for the second.

Compared with CCSSADICPKCWTLMPMAIRIIDR, CCSSADICPKCWTLMRMAIRIIDR is lower in protein stability index: 2.09 for the first, 1.95 for the second.

Compared with CCSSADICPKCWTLMLMAIRIIDR, CCSSADICPKCWTLMYMAIRIIDR is higher in protein stability index: 2 for the first, 2.08 for the second.

First: CCSSADICPKCWTLMEMAIRIIDR
Second: CCSSADICPKCWTLMVMAIRIIDR
The protein stability index of the first is lower: 1.48 for the first, 1.87 for the second.

Compared with CCSSADICPKCWTLMHMAIRIIDR, CCSSADICPKCWTLMDMAIRIIDR is higher in protein stability index: 2.04 for the first, 2.07 for the second.

First: CCSSADICPKCWTLMTMAIRIEDR
Second: CCSSADICPKCWTLMTMAIRIRDR
The protein stability index of the first is higher: 2.57 for the first, 2.5 for the second.

First: CCSSADICPKCWTLMTMAIRIWDR
Second: CCSSADICPKCWTLMTMAIRIGDR
The protein stability index of the first is lower: 1.72 for the first, 2.44 for the second.

Compared with CCSSADICPKCWTLMTMAIRISDR, CCSSADICPKCWTLMTMAIRIHDR is higher in protein stability index: 1.6 for the first, 1.9 for the second.

Going from CCSSADICPKCWTLMTMAIRIFDR to CCSSADICPKCWTLMTMAIRIMDR, the protein stability index rises from 1.59 to 1.8.

First: CCSSADICPKCWTLMTMAIRIYDR
Second: CCSSADICPKCWTLMTMAIRITDR
The protein stability index of the first is lower: 2.09 for the first, 2.97 for the second.

Compared with CCSSADICPKCWTLMTMAIRIQDR, CCSSADICPKCWTLMTMAIRINDR is lower in protein stability index: 2.81 for the first, 2.52 for the second.

Going from CCSSADICPKCWTLMTMAIRILDR to CCSSADICPKCWTLMTMAIRIVDR, the protein stability index rises from 2.3 to 2.34.

Compared with CCSSADICPKCWTLMTMAIRIPDR, CCSSADICPKCWTLMTMAIRIADR is lower in protein stability index: 2.71 for the first, 2.1 for the second.

First: CCSSADICPKCWTLMTMAIRIKDR
Second: CCSSADICPKCWTLMTMAIEIIDR
The protein stability index of the first is higher: 2.94 for the first, 1.83 for the second.

Compared with CCSSADICPKCWTLMTMAIWIIDR, CCSSADICPKCWTLMTMAIIIIDR is lower in protein stability index: 1.65 for the first, 1.33 for the second.

First: CCSSADICPKCWTLMTMAIGIIDR
Second: CCSSADICPKCWTLMTMAISIIDR
The protein stability index of the first is higher: 2.23 for the first, 2.01 for the second.

Going from CCSSADICPKCWTLMTMAINIIDR to CCSSADICPKCWTLMTMAIDIIDR, the protein stability index falls from 2.18 to 1.5.

Compared with CCSSADICPKCWTLMTMAIFIIDR, CCSSADICPKCWTLMTMAIHIIDR is higher in protein stability index: 1.46 for the first, 2.05 for the second.

First: CCSSADICPKCWTLMTMAIKIIDR
Second: CCSSADICPKCWTLMTMAIYIIDR
The protein stability index of the first is lower: 1.19 for the first, 1.91 for the second.

Compared with CCSSADICPKCWTLMTMAIPIIDR, CCSSADICPKCWTLMTMAILIIDR is lower in protein stability index: 2.25 for the first, 1.77 for the second.

Going from CCSSADICPKCWTLMTMAITIIDR to CCSSADICPKCWTLMTMAIQIIDR, the protein stability index rises from 1.67 to 3.56.

In the case of CCSSADICPKCWTLMTMAIVIIDR, the protein stability index is reported as 1.96.
